# *1 amine or outer side, *2 acyl side, *3 side chain or, on linkers, in order; H or OH if unused. Where no end group is shown, it is not given here. Side-chain parts run from the residue outwards. [ ]: non-standard residue; d: D form. The star is where a group is joined. αMePhe(2-F) = C[C@](N)(Cc1ccccc1F)C(=O)O; γGlu = O=C(O)[C@H](CCC(=O)[*:2])N[*:1]; C14 diacid = O=C(O)CCCCCCCCCCCCC(=O)*; αMeY = C[C@](N)(Cc1ccc(O)cc1)C(=O)O; αMeF = C[C@](N)(Cc1ccccc1)C(=O)O; αMeL = CC(C)C[C@](C)(N)C(=O)O; Orn = NCCC[C@H](N)C(=O)O; AEEA = NCCOCCOCC(=O)O; Aib = CC(C)(N)C(=O)O
# T1: human GIP receptor (human, UniProt P48546 22-466)
# T1 sequence (looked up): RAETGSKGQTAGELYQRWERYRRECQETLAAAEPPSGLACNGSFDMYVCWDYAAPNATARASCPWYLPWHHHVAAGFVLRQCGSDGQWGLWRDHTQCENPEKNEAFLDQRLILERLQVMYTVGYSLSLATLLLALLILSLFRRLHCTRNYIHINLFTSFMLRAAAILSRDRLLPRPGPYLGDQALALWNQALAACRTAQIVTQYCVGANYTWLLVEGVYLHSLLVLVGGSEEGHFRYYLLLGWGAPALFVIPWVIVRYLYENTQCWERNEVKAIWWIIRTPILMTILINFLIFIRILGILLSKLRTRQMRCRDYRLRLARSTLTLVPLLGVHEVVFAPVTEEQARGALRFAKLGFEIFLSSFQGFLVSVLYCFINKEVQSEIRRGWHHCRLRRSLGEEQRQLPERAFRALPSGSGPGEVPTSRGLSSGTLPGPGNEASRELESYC
# How the values were obtained:
# Assay in all cases: cell-based or functional assay
# [1] = target: human GLP-1 receptor (human, UniProt P43220 24-463)
# [2] = target: T1, human GIP receptor
# [3] = target: human glucagon receptor (human, UniProt P47871 26-477)
Binder,"EC50, cAMP [1] [nM]","Emax, cAMP [1] [%]","EC50, cAMP [2] [nM]","Emax, cAMP [2] [%]","EC50, cAMP [3] [µM]"
Y[Aib]EGT[αMePhe(2-F)]TSDK([AEEA-AEEA-γGlu-C14 diacid])SI[αMeL]LD[Orn]IAQ[Aib]E[αMeF]I[dE][αMeY]LIK([AEEA-AEEA-γGlu-C14 diacid])GGPSSGAPPPS-NH2 (N-terminus assumed; SMILES CC[C@H](C)[C@H](NC(=O)[C@H](CCCN)NC(=O)[C@H](CC(=O)O)NC(=O)[C@H](CC(C)C)NC(=O)[C@](C)(CC(C)C)NC(=O)[C@@H](NC(=O)[C@H](CO)NC(=O)[C@H](CCCCNC(=O)COCCOCCNC(=O)COCCOCCNC(=O)CC[C@H](NC(=O)CCCCCCCCCCCCC(=O)O)C(=O)O)NC(=O)[C@H](CC(=O)O)NC(=O)[C@H](CO)NC(=O)[C@@H](NC(=O)[C@](C)(Cc1ccccc1F)NC(=O)[C@@H](NC(=O)CNC(=O)[C@H](CCC(=O)O)NC(=O)C(C)(C)NC(=O)[C@@H](N)Cc1ccc(O)cc1)[C@@H](C)O)[C@@H](C)O)[C@@H](C)CC)C(=O)N[C@@H](C)C(=O)N[C@@H](CCC(N)=O)C(=O)NC(C)(C)C(=O)N[C@@H](CCC(=O)O)C(=O)N[C@@](C)(Cc1ccccc1)C(=O)N[C@H](C(=O)N[C@H](CCC(=O)O)C(=O)N[C@@](C)(Cc1ccc(O)cc1)C(=O)N[C@@H](CC(C)C)C(=O)N[C@H](C(=O)N[C@@H](CCCCNC(=O)COCCOCCNC(=O)COCCOCCNC(=O)CC[C@H](NC(=O)CCCCCCCCCCCCC(=O)O)C(=O)O)C(=O)NCC(=O)NCC(=O)N1CCC[C@H]1C(=O)N[C@@H](CO)C(=O)N[C@@H](CO)C(=O)NCC(=O)N[C@@H](C)C(=O)N1CCC[C@H]1C(=O)N1CCC[C@H]1C(=O)N1CCC[C@H]1C(=O)N[C@@H](CO)C(N)=O)[C@@H](C)CC)[C@@H](C)CC) [Example 111],2.28,121,0.0202,76.1,> 9.95
Y[Aib]EGT[αMePhe(2-F)]TSDV[Aib]I[αMeL]LD[Orn]K([AEEA-AEEA-γGlu-C14 diacid])AQ[Aib]EFIK([AEEA-AEEA-γGlu-C14 diacid])[αMeY]LIEGGPSSGAPPPS-NH2 [Example 115],0.16,91.6,0.103,,> 9.95
Y[Aib]EGT[αMePhe(2-F)]TSDK([AEEA-AEEA-γGlu-C14 diacid])SI[αMeL]LD[Orn]IAQ[Aib]EFI[dE][αMeY]LIEGGK([AEEA-AEEA-γGlu-C14 diacid])SSGAPPPS-NH2 (N-terminus assumed; SMILES CC[C@H](C)[C@H](NC(=O)[C@H](CCCN)NC(=O)[C@H](CC(=O)O)NC(=O)[C@H](CC(C)C)NC(=O)[C@](C)(CC(C)C)NC(=O)[C@@H](NC(=O)[C@H](CO)NC(=O)[C@H](CCCCNC(=O)COCCOCCNC(=O)COCCOCCNC(=O)CC[C@H](NC(=O)CCCCCCCCCCCCC(=O)O)C(=O)O)NC(=O)[C@H](CC(=O)O)NC(=O)[C@H](CO)NC(=O)[C@@H](NC(=O)[C@](C)(Cc1ccccc1F)NC(=O)[C@@H](NC(=O)CNC(=O)[C@H](CCC(=O)O)NC(=O)C(C)(C)NC(=O)[C@@H](N)Cc1ccc(O)cc1)[C@@H](C)O)[C@@H](C)O)[C@@H](C)CC)C(=O)N[C@@H](C)C(=O)N[C@@H](CCC(N)=O)C(=O)NC(C)(C)C(=O)N[C@@H](CCC(=O)O)C(=O)N[C@@H](Cc1ccccc1)C(=O)N[C@H](C(=O)N[C@H](CCC(=O)O)C(=O)N[C@@](C)(Cc1ccc(O)cc1)C(=O)N[C@@H](CC(C)C)C(=O)N[C@H](C(=O)N[C@@H](CCC(=O)O)C(=O)NCC(=O)NCC(=O)N[C@@H](CCCCNC(=O)COCCOCCNC(=O)COCCOCCNC(=O)CC[C@H](NC(=O)CCCCCCCCCCCCC(=O)O)C(=O)O)C(=O)N[C@@H](CO)C(=O)N[C@@H](CO)C(=O)NCC(=O)N[C@@H](C)C(=O)N1CCC[C@H]1C(=O)N1CCC[C@H]1C(=O)N1CCC[C@H]1C(=O)N[C@@H](CO)C(N)=O)[C@@H](C)CC)[C@@H](C)CC) [Example 108],0.701,97.6,0.0249,85.2,> 9.95
Y[Aib]EGT[αMePhe(2-F)]TSDK([AEEA-AEEA-γGlu-C14 diacid])SI[αMeL]LD[Orn]IAQ[Aib]E[αMeF]I[dE][αMeY]LIEGGK([AEEA-AEEA-γGlu-C14 diacid])SSGAPPPS-NH2 (N-terminus assumed; SMILES CC[C@H](C)[C@H](NC(=O)[C@H](CCCN)NC(=O)[C@H](CC(=O)O)NC(=O)[C@H](CC(C)C)NC(=O)[C@](C)(CC(C)C)NC(=O)[C@@H](NC(=O)[C@H](CO)NC(=O)[C@H](CCCCNC(=O)COCCOCCNC(=O)COCCOCCNC(=O)CC[C@H](NC(=O)CCCCCCCCCCCCC(=O)O)C(=O)O)NC(=O)[C@H](CC(=O)O)NC(=O)[C@H](CO)NC(=O)[C@@H](NC(=O)[C@](C)(Cc1ccccc1F)NC(=O)[C@@H](NC(=O)CNC(=O)[C@H](CCC(=O)O)NC(=O)C(C)(C)NC(=O)[C@@H](N)Cc1ccc(O)cc1)[C@@H](C)O)[C@@H](C)O)[C@@H](C)CC)C(=O)N[C@@H](C)C(=O)N[C@@H](CCC(N)=O)C(=O)NC(C)(C)C(=O)N[C@@H](CCC(=O)O)C(=O)N[C@@](C)(Cc1ccccc1)C(=O)N[C@H](C(=O)N[C@H](CCC(=O)O)C(=O)N[C@@](C)(Cc1ccc(O)cc1)C(=O)N[C@@H](CC(C)C)C(=O)N[C@H](C(=O)N[C@@H](CCC(=O)O)C(=O)NCC(=O)NCC(=O)N[C@@H](CCCCNC(=O)COCCOCCNC(=O)COCCOCCNC(=O)CC[C@H](NC(=O)CCCCCCCCCCCCC(=O)O)C(=O)O)C(=O)N[C@@H](CO)C(=O)N[C@@H](CO)C(=O)NCC(=O)N[C@@H](C)C(=O)N1CCC[C@H]1C(=O)N1CCC[C@H]1C(=O)N1CCC[C@H]1C(=O)N[C@@H](CO)C(N)=O)[C@@H](C)CC)[C@@H](C)CC) [Example 112],2.26,,0.0229,93.6,> 9.95
"YXEGTXTSDKSIXLDXIAQXKXIXXLIEGGPSSGAPPPS (Aib2, αMeF(2F)6, αMeL13, Orn16, Aib20, αMeF22, D-Glu24, αMeY25, K10 and K21: K(AEEA2-(γ-Glu)-CO-(CH2)12-CO2H), C-terminal NH2) [Example 109]",0.846,,0.0236,84.8,> 9.95
Y[Aib]EGT[αMePhe(2-F)]TSDK([AEEA-AEEA-γGlu-C14 diacid])SI[αMeL]LD[Orn]IAQ[Aib]E[αMeF]IK([AEEA-AEEA-γGlu-C14 diacid])[αMeY]LIEGGPSSGAPPPS-NH2 [Example 110],1.43,98.8,0.0417,,> 9.95
"YXEGTXTSDXXIXLDXKAQXEFIKXLIEGGPSSGAPPPS (Aib2, αMeF(2F)6, 4Pal10, Aib11, αMeL13, Orn16, Aib20, αMeY25, K17 and K24: K(AEEA2-(γ-Glu)-CO-(CH2)12-CO2H), C-terminal NH2) [Example 113]",0.291,,0.0331,97.9,> 9.95
"YXEGTXTSDXXIXLDXKAQXEXIKXLIEGGPSSGAPPPS (Aib2, αMeF(2F)6, 4Pal10, Aib11, αMeL13, Orn16, Aib20, αMeF22, αMeY25, K17 and K24: K(AEEA2-(γ-Glu)-CO-(CH2)12-CO2H), C-terminal NH2) [Example 117]",5.6,98.2,0.0352,96.4,> 9.95
"YXEGTXTSDXSIXLDXKAQXEFIXXLIEGGKSSGAPPPS (Aib2, αMeF(2F)6, 4Pal10, αMeL13, Orn16, Aib20, D-Glu24, αMeY25, K17 and K31: K(AEEA-(γ-Glu)-CO-(CH2)12-CO2H), C-terminal NH2) [Example 11]",0.511,,0.0135,,> 9.95
"YXEGTXTSDVSIXLDXKAQXEFIKXLIEGGPSSGAPPPS (Aib2, αMeF(2F)6, αMeL13, Orn16, Aib20, αMeY25, K17 and K24: K(AEEA2-(γ-Glu)-CO-(CH2)12-CO2H), C-terminal NH2) [Example 114]",0.176,91.7,0.0613,93.8,> 9.95
"YXEGTXTSDXSIXLDXKAQXEFIKXLIEGGPSSGAPPPS (Aib2, αMeF(2F)6, Ac5c10, αMeL13, Orn16, Aib20, αMeY25, K17 and K24: K(AEEA2-(γ-Glu)-CO-(CH2)12-CO2H), C-terminal NH2) [Example 116]",0.197,,0.137,115,> 9.95
Y[Aib]EGT[αMePhe(2-F)]TSDK([AEEA-AEEA-γGlu-C14 diacid])SI[αMeL]LD[Orn]IAQ[Aib]EFI[dE][αMeY]LIK([AEEA-AEEA-γGlu-C14 diacid])GGPSSGAPPPS-NH2 (N-terminus assumed; SMILES CC[C@H](C)[C@H](NC(=O)[C@H](CCCN)NC(=O)[C@H](CC(=O)O)NC(=O)[C@H](CC(C)C)NC(=O)[C@](C)(CC(C)C)NC(=O)[C@@H](NC(=O)[C@H](CO)NC(=O)[C@H](CCCCNC(=O)COCCOCCNC(=O)COCCOCCNC(=O)CC[C@H](NC(=O)CCCCCCCCCCCCC(=O)O)C(=O)O)NC(=O)[C@H](CC(=O)O)NC(=O)[C@H](CO)NC(=O)[C@@H](NC(=O)[C@](C)(Cc1ccccc1F)NC(=O)[C@@H](NC(=O)CNC(=O)[C@H](CCC(=O)O)NC(=O)C(C)(C)NC(=O)[C@@H](N)Cc1ccc(O)cc1)[C@@H](C)O)[C@@H](C)O)[C@@H](C)CC)C(=O)N[C@@H](C)C(=O)N[C@@H](CCC(N)=O)C(=O)NC(C)(C)C(=O)N[C@@H](CCC(=O)O)C(=O)N[C@@H](Cc1ccccc1)C(=O)N[C@H](C(=O)N[C@H](CCC(=O)O)C(=O)N[C@@](C)(Cc1ccc(O)cc1)C(=O)N[C@@H](CC(C)C)C(=O)N[C@H](C(=O)N[C@@H](CCCCNC(=O)COCCOCCNC(=O)COCCOCCNC(=O)CC[C@H](NC(=O)CCCCCCCCCCCCC(=O)O)C(=O)O)C(=O)NCC(=O)NCC(=O)N1CCC[C@H]1C(=O)N[C@@H](CO)C(=O)N[C@@H](CO)C(=O)NCC(=O)N[C@@H](C)C(=O)N1CCC[C@H]1C(=O)N1CCC[C@H]1C(=O)N1CCC[C@H]1C(=O)N[C@@H](CO)C(N)=O)[C@@H](C)CC)[C@@H](C)CC) [Example 107],1.01,93.4,0.0473,94.3,> 9.95
